Experimental data reported in US20230272114A1 (published 2023).

T1: Fc region of IgE (UniProt P01854 105-428)
T1 chain: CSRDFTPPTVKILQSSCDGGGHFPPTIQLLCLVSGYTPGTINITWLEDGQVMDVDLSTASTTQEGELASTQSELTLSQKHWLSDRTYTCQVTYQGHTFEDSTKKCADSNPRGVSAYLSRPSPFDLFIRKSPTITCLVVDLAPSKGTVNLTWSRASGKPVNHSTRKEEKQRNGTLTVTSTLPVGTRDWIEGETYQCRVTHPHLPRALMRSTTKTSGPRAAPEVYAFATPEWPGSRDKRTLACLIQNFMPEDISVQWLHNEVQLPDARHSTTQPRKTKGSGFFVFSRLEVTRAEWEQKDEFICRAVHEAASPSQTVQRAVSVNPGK

T2: recombinant human FcγRIIb protein (R&D Systems) (human, UniProt P31994 46-217)
T2 chain: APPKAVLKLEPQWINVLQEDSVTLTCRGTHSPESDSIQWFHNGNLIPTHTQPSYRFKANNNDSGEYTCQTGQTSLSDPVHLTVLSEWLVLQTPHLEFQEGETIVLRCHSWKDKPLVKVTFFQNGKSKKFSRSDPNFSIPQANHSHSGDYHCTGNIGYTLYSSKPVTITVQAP

B1: FcγRIIb (receptor)
chain: T2 chain
B2: MaE11_H1L1_IgG1_S267E/L328F (antibody)
chain 1: not shown
chain 2: DIQLTQSPSSLSASVGDRVTITCRASQSVDYDGDSYMNWYQQKPGQPPKLLIYAASYLGSEIPARFSGSGSGTDFTLTISSLQPEDFATYYCQQSHEDPYTFGAGTKLEIKRTVAAPSVFIFPPSDEQLKSGTASVVCLLNNFYPREAKVQWKVDNALQSGNSQESVTEQDSKDSTYSLSSTLTLSKADYEKHKVYACEVTHQGLSSPVTKSFNRGEC
B3: MaE11_H1L1_IgG1_G236R/L328R (antibody)
chain 1: not shown
chain 2: B2 chain 2
B4: MaE11_H1L1_IgG1_WT (antibody)
chain 1: not shown
chain 2: B2 chain 2
B5: FcγRI (receptor)
chain: QVDTTKAVITLQPPWVSVFQEETVTLHCEVLHLPGSSSTQWFLNGTATQTSTPSYRITSASVNDSGEYRCQRGLSGRSDPIQLEIHRGWLLLQVSSRVFTEGEPLALRCHAWKDKLVYNVLYYRNGKAFKFFHWNSNLTILKTNISHNGTYHCSGMGKHRYTSAGISVTVKELFPAPVLNASVTSPLLEGNLVTLSCETKLLLQRPGLQLYFSFYMGSKTLRGRNTSSEYQILTARREDSGLYWCEAATEDGNVLKRSPELELQVLGLQLPTP
B6: H131 FcγRIIa (receptor)
chain: QAAAPPKAVLKLEPPWINVLQEDSVTLTCQGARSPESDSIQWFHNGNLIPTHTQPSYRFKANNNDSGEYTCQTGQTSLSDPVHLTVLSEWLVLQTPHLEFQEGETIMLRCHSWKDKPLVKVTFFQNGKSQKFSHLDPTFSIPQANHSHSGDYHCTGNIGYTLFSSKPVTITVQVPSMGSSSPMGHHHHHH

Tests used:
S267E = assay: Biacore SPR
Fc region of IgE = biological target: T1, Fc region of IgE; assay: Biacore
[1] = biological target: T2, recombinant human FcγRIIb protein (R&D …); assay: Biacore SPR

Row | Binder | Kd (S267E) | Kd (Fc region of IgE) | Kd [1]
1 | B1 | 60 nM |  | 
2 | B2 |  | 0.063 nM | 5.6 nM
3 | B3 |  | 0.064 nM | 
4 | B4 |  | 0.061 nM | 2000 nM
5 | B5 | 0.26 nM |  | 
6 | B6 | 960 nM |  | 
